The chains are these.
B1: target 1 G15U,G17A (mixed)
RNA 1: CACCCGUGCAAAAAUGCAGGGGUCUAAAACUGAGCGGAUAACCUCUCUAUGG
RNA 2: GGGAAUGGAUCCACAUCUACGAAUUCGUACCAUAAAUAGGUUAUCCGCUCACCGAGAUCGGAAGAGCACACGU
B2: target 1 insG 3' of 10,insG 3' of 10 (mixed)
RNA 1: B1 RNA 1
RNA 2: GGGAAUGGAUCCACAUCUACGAAUUCGUACCAUAGAGAGGUUGGAUCCGCUCACCGAGAUCGGAAGAGCACACGU
B3: target 1 U8A,C22A (mixed)
RNA 1: B1 RNA 1
RNA 2: B1 RNA 2 with C30A, A35G, U37G, U44A
B4: target 3 C1G,A5U (mixed)
RNA 1: CACCCGUGCAAAAUUGCAGGGGUCUAAAACGACCUGAAUAUUUCAGAUCAAA
RNA 2: GGGAAUGGAUCCACAUCUACGAAUUCGUUUUUGAUCUGAAAUAUUCUGGUGUGCAGAUCGGAAGAGCACACGU
B5: target 3 insU 3' of 9,insA 3' of 7 (mixed)
RNA 1: B4 RNA 1
RNA 2: GGGAAUGGAUCCACAUCUACGAAUUCGUUUUUGAUCUGAAAUAUUUACAGGUCUGCAGAUCGGAAGAGCACACGU
B6: target 3 insU 3' of 9,insG 3' of 7 (mixed)
RNA 1: B4 RNA 1
RNA 2: B5 RNA 2 with A47G
B7: target 3 insC 3' of 9,insC 3' of 3 (mixed)
RNA 1: B4 RNA 1
RNA 2: B5 RNA 2 with U44C, A47C, C48A, A49G, G51C
B8: target 3 C1G,A9U (mixed)
RNA 1: B4 RNA 1
RNA 2: B4 RNA 2 with A43U, U47A
B9: target 3 G3C,A9G (mixed)
RNA 1: B4 RNA 1
RNA 2: B4 RNA 2 with A43G, U47A, G49C, G51C
B10: target 3 insG 3' of 5,insA 3' of 2 (mixed)
RNA 1: B4 RNA 1
RNA 2: B5 RNA 2 with U46C, C48G, A49G, G51U, U52A
B11: target 3 insC 3' of 13,insA 3' of 2 (mixed)
RNA 1: B4 RNA 1
RNA 2: B5 RNA 2 with A40C, U42A, A43U, U44A, A47C, C48A, A49G, G51U, U52A
B12: target 3 insC 3' of 7,insA 3' of 3 (mixed)
RNA 1: B4 RNA 1
RNA 2: B5 RNA 2 with U46C, A47C, C48A, A49G, G51A
B13: target 3 insC 3' of 15,insC 3' of 11 (mixed)
RNA 1: B4 RNA 1
RNA 2: B5 RNA 2 with G38C, A39G, U42A, A43C, U45A, A47U
B14: target 3 insG 3' of 6,insA 3' of 6 (mixed)
RNA 1: B4 RNA 1
RNA 2: B5 RNA 2 with U46C, A47G, C48A
B15: target 3 C1A,U2C (mixed)
RNA 1: B4 RNA 1
RNA 2: B4 RNA 2 with U47A, U50C, G51A
B16: target 3 insU 3' of 22,insC 3' of 22 (mixed)
RNA 1: B4 RNA 1
RNA 2: GGGAAUGGAUCCACAUCUACGAAUUCGUUUUCUUGAUCUGAAAUAUUCAGGUCUGCAGAUCGGAAGAGCACACGU
B17: target 3 U2G,U20C (mixed)
RNA 1: B4 RNA 1
RNA 2: B4 RNA 2 with U32C, U47A, U50G, G51C
B18: target 3 insA 3' of 2,insG 3' of 1 (mixed)
RNA 1: B4 RNA 1
RNA 2: B5 RNA 2 with U46C, C48G, A49G, G50U, G51A, U52C, C53G
B19: target 3 insC 3' of 7,insA 3' of 7 (mixed)
RNA 1: B4 RNA 1
RNA 2: B5 RNA 2 with U46C
B20: target 3 del6 (mixed)
RNA 1: B4 RNA 1
RNA 2: GGGAAUGGAUCCACAUCUACGAAUUCGUUUUUGAUCUGAAAUAUUAGGUCUGCAGAUCGGAAGAGCACACGU
B21: target 3 insC 3' of 9,insU 3' of 5 (mixed)
RNA 1: B4 RNA 1
RNA 2: B5 RNA 2 with U44C, A47C, C48A, A49U
B22: target 3 insG 3' of 8,insG 3' of 6 (mixed)
RNA 1: B4 RNA 1
RNA 2: B5 RNA 2 with U45G, A47C, C48G
B23: target 3 U20A,U21G (mixed)
RNA 1: B4 RNA 1
RNA 2: B4 RNA 2 with U31G, U32A, U47A, G51C
B24: target 3 U2G,U22C (mixed)
RNA 1: B4 RNA 1
RNA 2: B4 RNA 2 with U30C, U47A, U50G, G51C
B25: target 3 insG 3' of 2,insG 3' of 2 (mixed)
RNA 1: B4 RNA 1
RNA 2: B5 RNA 2 with U46C, C48G, A49G, G50U, U52G
B26: target 3 U7A,A18G (mixed)
RNA 1: B4 RNA 1
RNA 2: B4 RNA 2 with A34G, U45A, U47A, G51C
B27: target 3 A9U (mixed)
RNA 1: B4 RNA 1
RNA 2: B4 RNA 2 with A43U, U47A, G51C
B28: target 3 insC 3' of 11,insG 3' of 7 (mixed)
RNA 1: B4 RNA 1
RNA 2: B5 RNA 2 with U42C, A43U, U44A, A47G
B29: target 3 C1U,G3A (mixed)
RNA 1: B4 RNA 1
RNA 2: B4 RNA 2 with U47A, G49A, G51U
B30: target 3 insA 3' of 2,insU 3' of 1 (mixed)
RNA 1: B4 RNA 1
RNA 2: B5 RNA 2 with U46C, C48G, A49G, G50U, G51A, U52C, C53U
B31: target 3 del1,del15 (mixed)
RNA 1: B4 RNA 1
RNA 2: GGGAAUGGAUCCACAUCUACGAAUUCGUUUUUGAUCGAAAUAUUCAGGUUGCAGAUCGGAAGAGCACACGU
B32: target 3 A18U,U22A (mixed)
RNA 1: B4 RNA 1
RNA 2: B4 RNA 2 with U30A, A34U, U47A, G51C

Where a chain is given by its changes, count along the chain named. Names may count otherwise.

What is called Kd is the free concentration of one partner at which half of the binding sites on the other are occupied at equilibrium, for simple one-to-one binding. A low value points to tighter binding.

This data set concerns the target T1, EsCas13d, nuclease-dead (Eubacterium siraeum, UniProt B0MS50, R295A;H300A;R849A;H854A).
T1 sequence: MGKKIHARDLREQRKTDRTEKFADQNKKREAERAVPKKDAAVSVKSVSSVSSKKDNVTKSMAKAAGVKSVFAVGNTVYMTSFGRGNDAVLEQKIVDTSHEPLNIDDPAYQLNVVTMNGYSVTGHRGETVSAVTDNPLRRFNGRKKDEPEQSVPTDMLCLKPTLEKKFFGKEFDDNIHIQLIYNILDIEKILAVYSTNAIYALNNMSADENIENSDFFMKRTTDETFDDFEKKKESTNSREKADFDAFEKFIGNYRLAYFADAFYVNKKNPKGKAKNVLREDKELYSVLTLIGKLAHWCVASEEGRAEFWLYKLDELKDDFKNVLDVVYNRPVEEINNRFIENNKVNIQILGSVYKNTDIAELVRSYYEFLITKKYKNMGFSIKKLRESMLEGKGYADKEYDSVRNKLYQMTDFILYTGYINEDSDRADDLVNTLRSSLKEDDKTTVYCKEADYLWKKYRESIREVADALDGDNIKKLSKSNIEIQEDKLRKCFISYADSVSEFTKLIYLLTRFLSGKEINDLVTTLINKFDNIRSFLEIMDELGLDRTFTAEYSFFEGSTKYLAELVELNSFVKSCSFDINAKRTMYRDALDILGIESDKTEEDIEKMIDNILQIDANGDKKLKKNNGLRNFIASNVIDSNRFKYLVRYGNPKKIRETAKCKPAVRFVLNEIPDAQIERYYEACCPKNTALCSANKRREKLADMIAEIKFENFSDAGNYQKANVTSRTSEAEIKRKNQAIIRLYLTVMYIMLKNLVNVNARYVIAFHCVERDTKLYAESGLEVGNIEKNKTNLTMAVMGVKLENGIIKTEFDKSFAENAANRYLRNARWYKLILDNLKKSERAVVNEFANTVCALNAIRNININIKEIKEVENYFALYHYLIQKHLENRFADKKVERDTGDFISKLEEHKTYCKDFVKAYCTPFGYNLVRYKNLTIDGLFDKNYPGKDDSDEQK
As to the kind of experiment: crRNA (strand 1, pre-loaded); Mg2+; 40 mM Tris-HCl pH 7.5, 150 mM NaCl, 6 mM MgCl2, 1 mM DTT, 0.1% Tween-20, 0.2 mg/ml BSA; 25 C; 10 min per concentration, then washed. The following applies: tags: His6-TwinStrep-SUMO cleaved; N-terminal SNAP kept (SNAP-Surface 488); label: 3' end held by stalled T7 RNA polymerase.
With B1, binding was characterised by a dissociation constant (Kd) of 53 ± 5 nM.

B2: the affinity, expressed as Kd, was 21.8 ± 2.2 nM.

Take B3: the dissociation constant (Kd) is 31.1 ± 2.2 nM.

B4 showed a Kd of 10.1 ± 1.55 nM.

For the molecule B5, binding was characterised by a dissociation constant (Kd) of 51 ± 10.5 nM. Compared with the last molecule, the Kd is about 5-fold higher.

Molecule B6 yielded a Kd of 84.5 ± 18.5 nM.

B7 displayed an equilibrium dissociation constant (Kd) of 88 ± 24.5 nM.

B8 returned a Kd of 100 ± 40 nM.

B9 had a Kd of 55.5 ± 5.5 nM.

Molecule B10 came in with a Kd of 39 ± 6 nM.

As to B11, the Kd came out at 70 ± 13 nM.

B12 had a Kd of 68 ± 14 nM.

The molecule B13 gave a Kd of 46 ± 4 nM.

The molecule B14 came in with an equilibrium dissociation constant (Kd) of 8.8 ± 0.75 nM.

Take B15: the Kd was determined as 18.6 ± 3.7 nM.

Take B16: the Kd was found to be 39.5 ± 6 nM.

The molecule B17 gave an equilibrium dissociation constant (Kd) of 50 ± 19 nM.

Turning to B18, the Kd came out at 36 ± 9 nM.

Molecule B19 yielded a Kd of 11 ± 1.4 nM.

For the molecule B20, the Kd was 38.4 ± 3.55 nM.

On to B21, for which the Kd came out at 76.5 ± 12.5 nM.

Take B22: binding was characterised by a dissociation constant (Kd) of 31.6 ± 2.7 nM.

B23 displayed a Kd of 98 ± 39.5 nM.

Regarding B24, binding was characterised by a dissociation constant (Kd) of 19.8 ± 3.55 nM.

B25 yielded a Kd of 22 ± 2.05 nM.

Molecule B26 gave a Kd of 49 ± 6 nM.

B27: the Kd was roughly 120 nM.

In the case of B28, the dissociation constant Kd was 49 ± 11.5 nM.

For B29, the affinity, expressed as Kd, was 45 ± 10.5 nM.

On to B30, for which binding was characterised by a dissociation constant (Kd) of 85.5 ± 20.5 nM. Compared with the last molecule, the Kd is about 1.9-fold higher.

In turn, B31 returned a Kd of 62 ± 18 nM.

For the molecule B32, the dissociation constant (Kd) turned out to be 97.5 ± 30.5 nM.

For the origin of these results see publication PMC10786891, “Massively parallel profiling of RNA-targeting CRISPR-Cas13d”.
